Laboratory results taken from US20240287172A1 (SCIRHOM, published 2024).

Molecular target: T1, hiR2-FL-E594V-T7 (human, UniProt Q6PJF5 1-856)
T1 sequence: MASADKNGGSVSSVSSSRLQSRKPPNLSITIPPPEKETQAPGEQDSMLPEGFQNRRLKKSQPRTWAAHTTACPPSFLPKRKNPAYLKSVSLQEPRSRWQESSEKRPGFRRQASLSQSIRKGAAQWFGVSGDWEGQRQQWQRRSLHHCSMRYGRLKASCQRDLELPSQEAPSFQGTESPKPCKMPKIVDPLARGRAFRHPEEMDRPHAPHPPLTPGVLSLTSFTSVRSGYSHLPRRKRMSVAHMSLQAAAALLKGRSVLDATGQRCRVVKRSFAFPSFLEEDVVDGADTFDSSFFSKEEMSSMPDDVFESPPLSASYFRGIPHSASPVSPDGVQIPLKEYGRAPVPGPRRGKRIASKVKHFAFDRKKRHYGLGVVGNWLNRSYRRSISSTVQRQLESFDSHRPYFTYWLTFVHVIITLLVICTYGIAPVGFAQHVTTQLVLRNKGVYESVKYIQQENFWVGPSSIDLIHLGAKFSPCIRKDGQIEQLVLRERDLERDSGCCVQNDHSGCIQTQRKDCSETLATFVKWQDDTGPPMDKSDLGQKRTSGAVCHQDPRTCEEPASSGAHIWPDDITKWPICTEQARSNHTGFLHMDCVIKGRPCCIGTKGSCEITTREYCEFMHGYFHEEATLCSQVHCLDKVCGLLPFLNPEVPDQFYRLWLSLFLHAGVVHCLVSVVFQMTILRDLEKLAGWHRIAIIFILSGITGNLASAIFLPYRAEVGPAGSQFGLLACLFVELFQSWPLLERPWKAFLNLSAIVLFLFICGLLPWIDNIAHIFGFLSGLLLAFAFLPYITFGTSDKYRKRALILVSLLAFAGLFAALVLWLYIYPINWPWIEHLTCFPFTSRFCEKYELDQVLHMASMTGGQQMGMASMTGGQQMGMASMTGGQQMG
Experiment: FACS, MEF-DKO cells, 3 µg/ml
How it was run: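 MEF-DKO cells expressing T7-tagged full-length hiR2 point mutants were stained on ice for 1 h with purified antibodies at 3 μg/ml in FACS buffer. Detection used PE-conjugated goat anti-mouse IgG F(ab′)2 (1:100, 1 h on ice), read by flow cytometry; buffer-only wells served as controls.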

B1: antibody 48 (antibody, V domains shown)
VH: QVQLQQSGTELVRPGTSVKVSCKASGYAFTNYLIEWVKQRPGQGLEWIGVINPGSGFTKYNEKFKGKATLTADKSSSTVYMHLSSLTSEDSAVYFCARGLYRAMDYWGQGTSVTVSS
VL: DIQMTQSPASQSASLGESVTITCLASQTIATWLAWYQQKPGKSPQLLIYGATTLADGVPSRFSGGGSGTKFSFKISSLQAEDFVSYYCQQLYSTPYTFGGGTKLEIK
notes: mouse IgG, kappa light chain; also called clone #48; purified antibody 48
loss of binding vs wild type: ≥ 30%

B2: antibody 50 (antibody, V domains shown)
VH: QVQLQQSGAELVRPGASVKVSCKASGYAFSNYLIEWVKQRPGQGLEWIGVINPGSGFTKYNEKFKGKATLTADKSSSTAYMQLSSLTSEDSAVYFCARGLYRAMDYWGQGTSVTVSS
VL: DIQMTQSPASQSASLGESVTITCLASQTIGTWLAWYQQKPGKSPQLLIYAAASLADGVPSRFSGGGSGTKFSFKISSLQAEDFVNYYCQQIYSTPYTFGGGTKLEIK
notes: mouse IgG, kappa light chain; also called clone #50; purified antibody 50
loss of binding vs wild type: ≥ 30%
